Data set [1] concerns the molecule itself. The data set is described as follows: lipid monolayer assay with negative stain electron microscopy; sZipA (1-2 µM) held by its His6 tag on E. coli polar lipid (or DOPC) monolayers with 0.5 to 10% DGS-NTA; FtsZ 0.5 to 5 µM added, then 2 mM GTP or 0.5 mM GMPcPP; Z-buffer (50 mM Tris-HCl pH 7.5, 300 mM KCl, 5 mM MgCl2); control: FtsZ on NTA monolayers without sZipA.

Data set [2] has as its target T1, Alexa Fluor 488-labeled FtsZ (E. coli, UniProt P0A9A6 1-383, Alexa Fluor 488 (succinimidyl ester probe, 1:10 molar ratio); labelled residues not stated).
T1 construct: Cell division protein FtsZ, Escherichia coli; wild type; Same protein as m1, with a fluorescent label; used on supported lipid bilayers; also called FtsZ-Alexa Fluor 488; FtsZ Alexa Fluor 488
T1 sequence (looked up): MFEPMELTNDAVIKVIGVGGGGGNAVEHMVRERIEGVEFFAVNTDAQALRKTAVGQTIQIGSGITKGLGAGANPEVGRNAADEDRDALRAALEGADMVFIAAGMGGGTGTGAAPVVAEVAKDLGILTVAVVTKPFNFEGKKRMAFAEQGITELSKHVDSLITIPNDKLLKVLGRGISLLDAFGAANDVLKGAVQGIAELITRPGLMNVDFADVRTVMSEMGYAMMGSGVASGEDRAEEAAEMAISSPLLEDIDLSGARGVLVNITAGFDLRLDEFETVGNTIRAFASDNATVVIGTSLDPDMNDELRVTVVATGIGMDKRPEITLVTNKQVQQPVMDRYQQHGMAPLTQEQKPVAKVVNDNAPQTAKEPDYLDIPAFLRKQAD
The data set is described as follows: self-organization assay on supported lipid bilayers, confocal and STED fluorescence microscopy; Alexa Fluor 647-labeled sZipA attached to supported bilayers of E. coli polar lipids with 0.5% NTA lipids (low density); 1 µM FtsZ-Alexa Fluor 488 added, then 2 mM GTP or 0.5 mM GMPcPP; Z-buffer. The settings on record: both partners purified.

B1: E. coli FtsZ (natural protein, UniProt P0A9A6 1-383, looked up)
chain: MFEPMELTNDAVIKVIGVGGGGGNAVEHMVRERIEGVEFFAVNTDAQALRKTAVGQTIQIGSGITKGLGAGANPEVGRNAADEDRDALRAALEGADMVFIAAGMGGGTGTGAAPVVAEVAKDLGILTVAVVTKPFNFEGKKRMAFAEQGITELSKHVDSLITIPNDKLLKVLGRGISLLDAFGAANDVLKGAVQGIAELITRPGLMNVDFADVRTVMSEMGYAMMGSGVASGEDRAEEAAEMAISSPLLEDIDLSGARGVLVNITAGFDLRLDEFETVGNTIRAFASDNATVVIGTSLDPDMNDELRVTVVATGIGMDKRPEITLVTNKQVQQPVMDRYQQHGMAPLTQEQKPVAKVVNDNAPQTAKEPDYLDIPAFLRKQAD
notes: Cell division protein FtsZ, Escherichia coli; wild type; Unlabelled FtsZ of the lipid monolayer / electron microscopy assays; Polymerised with GTP or GMPcPP; source: plasmid pMFV56 (pET28a-FtsZ)
B1: the binding result in data set [1] is listed as “binds”.

B2: Alexa Fluor 647-labeled sZipA (domain or fragment)
chain: not shown
modifications: Alexa Fluor 647 (succinimidyl ester probe, 1:10 molar ratio); labelled residues not stated
notes: Cell division protein ZipA, Escherichia coli; first 25 amino acids replaced by a His6 tag; Same construct as m2, with a fluorescent label; attached to supported lipid bilayers that contain NTA lipids; also called fluorescent sZipA; not shown: His6, N-terminal, kept
With B2, the binding result in data set [2] is recorded as “binds”.

Source of the values: PMC6016244, “Escherichia coli ZipA Organizes FtsZ Polymers into Dynamic Ring-Like Protofilament Structures” (mBio, 2018).
